According to paper PMC7423924, “A fluorogenic cyclic peptide for imaging and quantification of drug-induced apoptosis” (Nature Communications, 2020):
Where “and” joins values, the source holds several entries; their conditions need not be identical. Equal entries are not always repeated.

Tested on: neutrophils (myeloid)
Test: Flow cytometry staining before and after induction of apoptosis, neutrophils
Type: cell-based, human
Details: single replicates, listed as Ann V
Procedure: Fig. 2 Apo-15 binds to apoptotic cells of different origin in multiple environments. a Representative fluorescence confocal microscopy images (from three independent experiments) human apoptotic (yellow arrows) and viable (white arrows) cells from different lineages: BL-2 (lymphoid), neutrophils (myeloid), and primary airway epithelial cells (epithelial). Cells were incubated with Apo-15 (100 nM, green), AF647-Annexin V (5 nM, red), and Hoechst 33342 (7 μM, blue) for 10 min and imaged under a fluorescence confocal microscope (λexc.: 405, 488, 633 nm: λem.: 450, 525, 670 nm). Scale bars: 10 µm. b Divalent cation-independent binding of Apo-15 to apoptotic cells of different origin (top plots: lymphoid cells, bottom plots: myeloid cells). Mixtures of apoptotic (highlighted in green dots) and viable cells (highlighted in black dots) were stained with AF647-Annexin V (25 nM) and Apo-15 (100 nM) in the presence of 2 mM CaCl2 (left) or 2.5 mM EDTA (right). Representative histograms showing Apo-15 binding (x-axis) vs AF647-Annexin V binding (y-axis) acquired on 5L LSR flow cytometer (n = 5). c Cells were sorted on their Apo-15 positivity (green populations in panel b) or negativity (black populations in panel b). Gating strategy in Supplementary Fig. 7. Morphological analysis (four independent images from two independent experiments) of cytocentrifuge preparations of Apo-15-positive and Apo-15-negative cells under brightfield microscopy (scale bar: 10 µm). d Quantification of fluorescence staining of neutrophils (myeloid, n ≥ 5), BL-2 cells (lymphoid, n ≥ 3) and primary airway epithelial cells (epithelial, n = 5) before and after induction of apoptosis and upon treatment with Apo-15 and AF647-Annexin V. Data acquired on 5 L LSR flow cytometer and presented as mean values ± SEM. P values obtained from two-tailed t tests. Source data (in d) are provided as a Source data file. […]
Work with human peripheral blood leukocytes complied with all relevant ethical regulations and informed consent was obtained. […]

B1: Annexin V: fluorescently-labeled (AF647) annexin V, PS-binding protein (protein, UniProt P08758 2-320, looked up)
Annexin A5: AQVLRGTVTDFPGFDERADAETLRKAMKGLGTDEESILTLLTSRSNAQRQEISAAFKTLFGRDLLDDLKSELTGKFEKLIVALMKPSRLYDAYELKHALKGAGTNEKVLTEIIASRTPEELRAIKQVYEEEYGSSLEDDVVGDTSGYYQRMLVVLLQANRDPDAGIDEAQVEQDAQALFQAGELKWGTDEEKFITIFGTRSVSHLRKVFDKYMTISGFQIEETIDRETSGNLEQLLLAVVKSIRSIPAYLAETLYYAMKGAGTDDHTLIRVMVSRSEIDLFNIRKEFRKNFATSLYSMIKGDTSGDYKKALLLLCGEDD
modifications: AF647 label
Stained cells (flow cytometry) (neutrophils 0 h, before induction of apoptosis): 2.6% and 3.7% and 2.0% and 1.4% and 1.1%
Stained cells (flow cytometry) (neutrophils 18 h, EDTA (2.5 mM)): 0.0% and 0.5%
Stained cells (flow cytometry) (neutrophils after 18 h culture at 37 °C): 51.9% and 32% and 59.2% and 56.9% and 54.7% and 56.2% and 68% and 42.1% and 61.5% and 44.8% and 31.8% and 64.6% and 60.9% and 43.7% and 65.3% and 57.6% and 48% and 40.7% and 35.2% and 65.8% and 72.2% and 52.7% and 70.5% and 46.6%
